Data published in patent US20210032365A1 (Chugai, published 2021).
Changes are numbered by the printed parent chain. Names and notes keep the numbering of the source. One block for each binder: values may come before it.

Columns and labels:
human C1s [1] = target: T1, human C1s (human, UniProt P09871 16-688); test: SPR, Ab captured; pH 7.4, 1.2 mM Ca
T1 construct: also called hC1s; serum-derived human C1s (CompTech)
T1 sequence: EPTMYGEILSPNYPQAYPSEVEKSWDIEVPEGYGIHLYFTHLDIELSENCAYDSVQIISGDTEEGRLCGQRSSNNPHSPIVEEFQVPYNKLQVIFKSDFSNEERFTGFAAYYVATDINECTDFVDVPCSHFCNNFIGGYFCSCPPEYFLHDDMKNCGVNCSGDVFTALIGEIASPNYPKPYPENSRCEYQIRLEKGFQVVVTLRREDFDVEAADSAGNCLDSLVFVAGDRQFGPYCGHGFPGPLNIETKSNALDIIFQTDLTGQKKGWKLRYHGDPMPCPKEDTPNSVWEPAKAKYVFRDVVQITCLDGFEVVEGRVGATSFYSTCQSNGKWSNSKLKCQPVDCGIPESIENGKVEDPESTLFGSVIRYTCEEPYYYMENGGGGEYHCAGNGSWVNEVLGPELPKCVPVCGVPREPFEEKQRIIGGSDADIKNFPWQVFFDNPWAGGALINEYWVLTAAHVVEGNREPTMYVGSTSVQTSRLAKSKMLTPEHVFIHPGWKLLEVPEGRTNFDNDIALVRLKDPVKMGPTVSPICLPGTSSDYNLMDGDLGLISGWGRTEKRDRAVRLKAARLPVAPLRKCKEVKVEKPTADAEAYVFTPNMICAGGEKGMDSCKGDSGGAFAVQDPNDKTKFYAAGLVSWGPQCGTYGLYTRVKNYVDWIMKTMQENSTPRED
Outline: (§1)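 Antibody captured on protein A/G (~200 RU) on Biacore T200 at 37C; serum-derived or recombinant human C1s injected at 50 nM, then dissociation. KD measured at pH 7.4 with 1.2 mM Ca and at pH 5.8 with 1.2 mM or 3 uM Ca; KD ratios pH 5.8/pH 7.4 calculated.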

human C1s [2] = target: T1, human C1s; test: SPR, Ab captured; pH 5.8, 1.2 mM Ca
Method: (§2) All variants were transiently expressed and purified by the method described above. The binding affinity of each histidine-substituted variant at pH 7.4 and pH 5.8 was determined at 37 degrees C. using Biacore T200 instrument (GE Healthcare). Recombinant Protein A/G (Pierce) was immobilized onto all flow cells of a CM4 sensor chip using an amine coupling kit (GE Healthcare). Antibodies and analytes were prepared in 7(+) buffer (20 mM ACES, 150 mM NaCl, 1.2 mM CaCl2, 0.05% Tween 20, 0.005% NaN3, pH 7.4), 5(+) buffer (20 mM ACES, 150 mM NaCl, 1.2 mM CaCl2, 0.05% Tween 20, 0.005% NaN3, pH 5.8), or 5(−) buffer (20 mM ACES, 150 mM NaCl, 3 micro M CaCl2, 0.05% Tween 20, 0.005% NaN3, pH 5.8). Each antibody was captured onto the sensor surface by protein A/G. Antibody capture levels were aimed at 200 resonance unit (RU). Serum-derived human C1s (CompTech) or recombinant C1s prepared in EXAMPLE 1 was injected at 50 nM, followed by dissociation. The sensor surface was regenerated in each cycle with 10 mM Glycine-HCl, pH 1.5. […] The ratio of KD 5.8+ to KD 7.4+(“KD 5+/7+”) and that of KD 5.8− to KD 7.4+(“KD 5−/7+”) were calculated. When the KD 5+/7+ or KD 5−/7+ of a variant is larger than that of the parent antibody IPN009VH2-SG4GK/IPN009VK3-SK1, that variant is considered to be “pH”- or “pH and Ca”-dependent, respectively. When binding response in 5(+) buffer and/or in 5(−) buffer of a variant is much lower than that of IPN09VH2/IPN009VK3, that variant is also considered as “pH”- and/or “pH and Ca”-dependent. Therefore, such mutations are effective to generate “pH”- and/or “pH and Ca”-dependent antibody. To further enhance “pH” and/or “pH and Ca” dependency, a combination of histidine mutations was conducted. Antibodies with combinations of histidine mutations were evaluated using Biacore by the method described above.

human C1s [3] = target: T1, human C1s; test: SPR; KD pH 5.8 3 uM Ca / KD pH 7.4 1.2 mM Ca
Outline: (§3)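 Readout: Biacore KD. Antibodies on protein A/G (~200 RU), C1s at 50 nM, 37 °C, ACES-buffered saline with Tween at pH 7.4/1.2 mM Ca, pH 5.8/1.2 mM Ca or pH 5.8/3 µM Ca.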

human C1s [4] = target: T1, human C1s; test: SPR, Ab captured; pH 5.8, 1.2 mM Ca; remark: listed apart in the source
Outline: as §3

human C1s [5] = target: T1, human C1s; test: SPR; KD pH 5.8 1.2 mM Ca / KD pH 7.4 1.2 mM Ca
Outline: as §3

human C1s [6] = target: T1, human C1s; test: SPR; KD pH 5.8 1.2 mM Ca / KD pH 7.4 1.2 mM Ca; remark: listed apart in the source
Method: as §2

human C1s [7] = target: T1, human C1s; test: SPR, Ab captured; pH 5.8, 3 uM Ca
Outline: as §3

human C1s [8] = target: T1, human C1s; test: SPR, Ab captured; pH 7.4, 1.2 mM Ca; remark: listed apart in the source
Outline: as §3

human C1s [9] = target: T1, human C1s; test: SPR; KD pH 5.8 3 uM Ca / KD pH 7.4 1.2 mM Ca; remark: listed apart in the source
Method: as §2

human C1s [10] = target: T1, human C1s; test: SPR, Ab captured; pH 5.8, 3 uM Ca; remark: listed apart in the source
Method: as §2

human C1s [11] = target: T1, human C1s; test: SPR, Ab captured; pH 7.4, 1.2 mM Ca; remark: listed apart in the source
Method: as §2

human C1s [12] = target: T2, human C1s (human, UniProt P09871 16-688); test: SPR; KD at pH 5.8 (3 uM Ca) over KD at pH 7.4 (1.2 mM Ca)
T2 construct: Analyte in the Biacore assays; also called hC1s; serum-derived human C1s (CompTech)
T2 sequence: T1 sequence
Outline: as §1

human C1s [13] = target: T2, human C1s; test: SPR; KD at pH 5.8 (1.2 mM Ca) over KD at pH 7.4 (1.2 mM Ca)
Outline: as §1

human C1s [14] = target: T2, human C1s; test: SPR (Biacore T200, 37C), Ab captured on protein A/G; pH 5.8, 3 uM Ca
Outline: as §1

human C1s [15] = target: T2, human C1s; test: SPR; KD at pH 5.8 (3 uM Ca) over KD at pH 7.4 (1.2 mM Ca); remark: listed apart in the source
Method: as §2

human C1s [16] = target: T2, human C1s; test: SPR (Biacore T200, 37C), Ab captured on protein A/G; pH 5.8, 1.2 mM Ca
Method: as §2

human C1s [17] = target: T2, human C1s; test: as above; remark: listed apart in the source
Outline: as §1

human C1s [18] = target: T2, human C1s; test: SPR (Biacore T200, 37C), Ab captured on protein A/G; pH 7.4, 1.2 mM Ca
Method: as §2

human C1s [19] = target: T2, human C1s; test: SPR; KD at pH 5.8 (1.2 mM Ca) over KD at pH 7.4 (1.2 mM Ca); remark: listed apart in the source
Method: as §2

human C1s [20] = target: T2, human C1s; test: SPR (Biacore T200, 37C), Ab captured on protein A/G; pH 5.8, 3 uM Ca; remark: listed apart in the source
Method: as §2

B1: C1_IPN009VH2-SG4GK/IPN009VK3-SK1 (antibody, human IgG4 S228P, kappa)
heavy: not shown
light: QIVLTQSPATLSLSPGERATLSCTASSSVSSSYLHWYQQKPGKAPKLWIYSTSNLASGVPSRFSGSGSGTDYTLTISSLQPEDFATYYCHQYYRLPPITFGQGTKLEIKRTVAAPSVFIFPPSDEQLKSGTASVVCLLNNFYPREAKVQWKVDNALQSGNSQESVTEQDSKDSTYSLSSTLTLSKADYEKHKVYACEVTHQGLSSPVTKSFNRGEC
notes: parent antibody; variable regions as described in WO2016164358; also called IPN009VH2/IPN009VK3; IPN09VH2/IPN09VK3
koff (human C1s [1]): 0.000298 s⁻¹ | kon (human C1s [1]): 362000 M⁻¹ s⁻¹ | koff (human C1s [2]): 0.000108 s⁻¹ | kon (human C1s [2]): 662000 M⁻¹ s⁻¹ | KD 5(-)/7(+) (human C1s [3]): 4.1 | koff (human C1s [4]): 0.000108 s⁻¹ | kon (human C1s [4]): 662000 M⁻¹ s⁻¹ | KD 5(+)/7(+) (human C1s [5]): 0.2 | KD 5(+)/7(+) (human C1s [6]): 0.2 | koff (human C1s [7]): 0.00204 s⁻¹ | kon (human C1s [7]): 606000 M⁻¹ s⁻¹ | koff (human C1s [8]): 0.000298 s⁻¹ | kon (human C1s [8]): 362000 M⁻¹ s⁻¹ | KD 5(-)/7(+) (human C1s [9]): 4.1 | koff (human C1s [10]): 0.00204 s⁻¹ | kon (human C1s [10]): 606000 M⁻¹ s⁻¹ | koff (human C1s [11]): 0.000298 s⁻¹ | kon (human C1s [11]): 362000 M⁻¹ s⁻¹

B2: C1_IPN009VH2-SG4GK/IPN009VK3-SK1 (antibody, human IgG4 S228P, kappa)
heavy: not shown
light: B1 light
notes: Parent antibody; also called IPN009VH2/IPN009VK3; IPN09VH2/IPN09VK3
KD 5(-)/7(+) (human C1s [12]): 4.09 | KD 5(+)/7(+) (human C1s [13]): 0.2 | koff (human C1s [14]): 0.00204 s⁻¹ | kon (human C1s [14]): 606000 M⁻¹ s⁻¹ | KD 5(-)/7(+) (human C1s [15]): 4.09 | koff (human C1s [16]): 0.000108 s⁻¹ | kon (human C1s [16]): 662000 M⁻¹ s⁻¹ | koff (human C1s [17]): 0.000108 s⁻¹ | kon (human C1s [17]): 662000 M⁻¹ s⁻¹ | koff (human C1s [18]): 0.000298 s⁻¹ | kon (human C1s [18]): 362000 M⁻¹ s⁻¹ | KD 5(+)/7(+) (human C1s [19]): 0.2 | koff (human C1s [20]): 0.00204 s⁻¹ | kon (human C1s [20]): 605000 M⁻¹ s⁻¹

B5: C1_IPN92H0288-SG4GK/IPN93L0058-SK1 (antibody, human IgG4 S228P, kappa)
heavy: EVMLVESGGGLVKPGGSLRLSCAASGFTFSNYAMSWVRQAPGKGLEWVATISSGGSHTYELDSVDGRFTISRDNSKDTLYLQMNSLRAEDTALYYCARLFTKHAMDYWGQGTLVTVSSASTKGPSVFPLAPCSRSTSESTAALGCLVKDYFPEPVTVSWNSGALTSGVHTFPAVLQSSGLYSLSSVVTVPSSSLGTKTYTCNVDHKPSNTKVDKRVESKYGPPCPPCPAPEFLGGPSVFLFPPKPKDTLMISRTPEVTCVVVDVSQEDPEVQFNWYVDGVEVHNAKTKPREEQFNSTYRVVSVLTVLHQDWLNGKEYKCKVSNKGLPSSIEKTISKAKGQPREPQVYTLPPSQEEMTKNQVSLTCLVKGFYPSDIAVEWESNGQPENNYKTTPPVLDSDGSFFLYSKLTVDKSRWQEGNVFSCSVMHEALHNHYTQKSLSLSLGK
light: B1 light with S28E, P96H
notes: also called IPN92H0288/IPN93L0058
KD 5(-)/7(+) (human C1s [15]): 9.5 | koff (human C1s [16]): 0.0143 s⁻¹ | kon (human C1s [16]): 732000 M⁻¹ s⁻¹ | koff (human C1s [18]): 0.000548 s⁻¹ | kon (human C1s [18]): 654000 M⁻¹ s⁻¹ | KD 5(+)/7(+) (human C1s [19]): 23.3 | koff (human C1s [20]): 0.00401 s⁻¹ | kon (human C1s [20]): 504000 M⁻¹ s⁻¹

B6: C1_IPN92H0026-SG4GK/IPN009VK3-SK1 (antibody, human IgG4 S228P, kappa, name in Kabat numbering, V domains shown)
VH: EVMLVESGGGLVKPGGSLRLSCAASGFTFSNYAMSWVRQAPGKGLEWVATISSGGSHTYYLDSVKHRFTISRDNSKDTLYLQMNSLRAEDTALYYCARLFTGYAMDYWGQGTLVTVSS
VL: QIVLTQSPATLSLSPGERATLSCTASSSVSSSYLHWYQQKPGKAPKLWIYSTSNLASGVPSRFSGSGSGTDYTLTISSLQPEDFATYYCHQYYRLPPITFGQGTKLEIKR
notes: also called IPN92H0026/IPN009VK3
Kd (human C1s [2]): 0.222 nM | koff (human C1s [2]): 0.000162 s⁻¹ | kon (human C1s [2]): 729000 M⁻¹ s⁻¹ | KD 5(+)/7(+) (human C1s [6]): 0.4 | KD 5(-)/7(+) (human C1s [9]): 4.7 | Kd (human C1s [10]): 2.58 nM | koff (human C1s [10]): 0.00171 s⁻¹ | kon (human C1s [10]): 665000 M⁻¹ s⁻¹ | Kd (human C1s [11]): 0.549 nM | koff (human C1s [11]): 0.000236 s⁻¹ | kon (human C1s [11]): 430000 M⁻¹ s⁻¹

Second part, the binder after the results:

KD 5(-)/7(+) (human C1s [15]): 2.56 | koff (human C1s [16]): 0.0142 s⁻¹ | kon (human C1s [16]): 731000 M⁻¹ s⁻¹ | koff (human C1s [18]): 0.000863 s⁻¹ | kon (human C1s [18]): 446000 M⁻¹ s⁻¹ | KD 5(+)/7(+) (human C1s [19]): 10.1 | koff (human C1s [20]): 0.00196 s⁻¹ | kon (human C1s [20]): 396000 M⁻¹ s⁻¹
B3: C1_IPN92H0307-SG4GK/IPN93L0058-SK1 (antibody, human IgG4 S228P, kappa)
heavy: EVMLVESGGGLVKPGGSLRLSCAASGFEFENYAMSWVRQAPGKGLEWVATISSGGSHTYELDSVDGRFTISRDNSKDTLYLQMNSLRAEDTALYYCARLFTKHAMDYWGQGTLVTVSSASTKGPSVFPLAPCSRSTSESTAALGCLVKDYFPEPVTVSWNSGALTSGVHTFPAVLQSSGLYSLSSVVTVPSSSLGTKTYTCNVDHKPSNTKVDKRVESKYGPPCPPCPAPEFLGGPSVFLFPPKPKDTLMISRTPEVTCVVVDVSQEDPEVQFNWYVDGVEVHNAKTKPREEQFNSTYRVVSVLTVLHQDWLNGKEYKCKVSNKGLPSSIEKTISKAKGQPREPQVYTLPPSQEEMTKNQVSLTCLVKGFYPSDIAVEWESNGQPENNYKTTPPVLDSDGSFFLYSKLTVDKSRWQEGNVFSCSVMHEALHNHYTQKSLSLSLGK
light: B1 light with S28E, P96H
notes: also called IPN92H0307/IPN93L0058

koff (human C1s [2]): 0.000372 s⁻¹ | kon (human C1s [2]): 722000 M⁻¹ s⁻¹ | KD 5(+)/7(+) (human C1s [6]): 0.7 | KD 5(-)/7(+) (human C1s [9]): 12.1 | koff (human C1s [10]): 0.00635 s⁻¹ | kon (human C1s [10]): 664000 M⁻¹ s⁻¹ | koff (human C1s [11]): 0.00026 s⁻¹ | kon (human C1s [11]): 328000 M⁻¹ s⁻¹
B4: C1_IPN92H0033-SG4GK/IPN009VK3-SK1 (antibody, human IgG4 S228P, kappa)
heavy: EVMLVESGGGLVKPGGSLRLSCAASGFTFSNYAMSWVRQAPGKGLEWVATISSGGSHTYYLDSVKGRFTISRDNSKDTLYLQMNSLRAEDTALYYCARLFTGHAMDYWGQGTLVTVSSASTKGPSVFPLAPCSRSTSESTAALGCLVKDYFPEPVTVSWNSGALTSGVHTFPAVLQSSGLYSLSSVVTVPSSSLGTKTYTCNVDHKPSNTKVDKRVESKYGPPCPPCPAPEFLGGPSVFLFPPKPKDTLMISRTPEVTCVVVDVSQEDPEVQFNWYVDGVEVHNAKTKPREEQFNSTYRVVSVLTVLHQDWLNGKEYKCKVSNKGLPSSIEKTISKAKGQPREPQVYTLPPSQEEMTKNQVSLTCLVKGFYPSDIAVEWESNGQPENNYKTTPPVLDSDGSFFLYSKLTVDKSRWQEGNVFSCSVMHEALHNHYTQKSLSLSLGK
light: B1 light
notes: VH = IPN009VH2 with Y99H (Kabat); also called IPN92H0033/IPN009VK3
